1 substance from publication PMC13612217 can be followed below.

The target of the test is S-chain of the optimized human DROP-CAR containing dmLD3 (human).

Take “R-domain of the anti-PSMA DROP-CAR (J591 scFv fused to Bcl-2)”: the percent of anti-PSMA DROP-CAR Jurkat cells still bound to a PC3-PIP monolayer at 1,000 pN (z-Movi acoustic force ramp), with venetoclax, partially detached cells counted as bound stood at 30%; the percent of anti-PSMA DROP-CAR Jurkat cells still bound to a PC3-PIP monolayer at 1,000 pN (z-Movi acoustic force ramp), with venetoclax, partially detached cells counted as dissociated is < 10%; the percent of anti-PSMA DROP-CAR Jurkat cells still bound to a PC3-PIP monolayer at 1,000 pN (z-Movi acoustic force ramp), without venetoclax, partially detached cells counted as bound came out at 64%; the percent of anti-PSMA DROP-CAR Jurkat cells still bound to a PC3-PIP monolayer at 1,000 pN (z-Movi acoustic force ramp), without venetoclax, partially detached cells counted as dissociated was found to be 30%.
